Substitutions are numbered along the chain they refer to.
T1: human TREM2 (human) (UniProt Q9NZC2)
T1 sequence (looked up): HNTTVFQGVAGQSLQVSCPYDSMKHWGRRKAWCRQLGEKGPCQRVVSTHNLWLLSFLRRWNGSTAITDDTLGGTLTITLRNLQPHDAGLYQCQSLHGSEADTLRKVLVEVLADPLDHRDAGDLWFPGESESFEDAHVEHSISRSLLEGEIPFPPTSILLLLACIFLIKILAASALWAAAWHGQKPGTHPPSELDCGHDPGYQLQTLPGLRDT

B1: 6E7 variant V34 (antibody, V domains shown)
VH: EVQLVQSGAEVKKPGESLKISCKGSGYSFTSYWIAWVRQMPGKGLEWMGIIYPGDSDTRYSPSFQGQVTISADKSISTAYLQWSSLKASDTAMYFCARQRTFYYDSSDYFDYWGQGTLVTVSS
VL: DIQMTQSPSSVSASVGDRVTITCRASQGISSWLAWYQQKPGKAPKLLIYAASSLQDGVPSRFSGSGSGTDFTLTISSLQPEDFATYFCQQADSFPRTFGQGTKLEIK
B2: 6E7 variant V55 (antibody, V domains shown)
VH: B1 VH with R59I, F64H
VL: B1 VL with D56N
B3: 6E7 variant V71 (antibody, V domains shown)
VH: B1 VH
VL: B1 VL with D56N, F94E
B4: 6E7 variant V78 (antibody, V domains shown)
VH: B1 VH with S28R
VL: B1 VL with D56N
B5: 6E7 variant V68 (antibody, V domains shown)
VH: B1 VH with Y103R
VL: B1 VL with D56N
B6: 6E7 variant V66 (antibody, V domains shown)
VH: B1 VH with Y27T
VL: B1 VL with D56N
B7: 6E7 variant V58 (antibody, V domains shown)
VH: B1 VH
VL: B1 VL with A50K, D56N
B8: 6E7 variant V35 (antibody, V domains shown)
VH: B1 VH
VL: B1 VL with D56N, D92Y
B9: 6E7 variant V45 (antibody, V domains shown)
VH: B1 VH
VL: B1 VL with W32F, D56N
B10: 6E7 variant V56 (antibody, V domains shown)
VH: B1 VH with S61Q
VL: B1 VL with D56N
B11: 6E7 variant V67 (antibody, V domains shown)
VH: B1 VH with I50M
VL: B1 VL with D56N
B12: 6E7 variant V43 (antibody, V domains shown)
VH: B1 VH with D57G
VL: B1 VL with D56N
B13: 6E7 variant V46 (antibody, V domains shown)
VH: B1 VH
VL: B1 VL with S53T, D56N
B14: 6E7 variant V42 (antibody, V domains shown)
VH: B1 VH with Y32A
VL: B1 VL with D56N
B15: 6E7 variant V83 (antibody, V domains shown)
VH: B1 VH
VL: B1 VL with D56N, D92V
B16: 6E7 variant V81 (antibody, V domains shown)
VH: B1 VH
VL: B1 VL with W32L, D56N
B17: 6E7 variant V69 (antibody, V domains shown)
VH: B1 VH
VL: B1 VL with W32Y, D56N
B18: 6E7 variant V59 (antibody, V domains shown)
VH: B1 VH
VL: B1 VL with D56N, Q89M
B19: 6E7 variant V57 (antibody, V domains shown)
VH: B1 VH
VL: B1 VL with R24A, D56N
B20: 6E7 variant V70 (antibody, V domains shown)
VH: B1 VH
VL: B1 VL with S52G, D56N
B21: 6E7 variant V82 (antibody, V domains shown)
VH: B1 VH
VL: B1 VL with A51G, D56N
B22: 6E7 variant V47 (antibody, V domains shown)
VH: B1 VH
VL: B1 VL with D56N, R96M
B23: 6E7 variant V79 (antibody, V domains shown)
VH: B1 VH with R59N
VL: B1 VL with D56N
B24: 6E7 variant V80 (antibody, V domains shown)
VH: B1 VH with T101N
VL: B1 VL with D56N
B25: 6E7 variant V44 (antibody, V domains shown)
VH: B1 VH with G54S
VL: B1 VL with D56N
B26: 6E7 variant V54 (antibody, V domains shown)
VH: B1 VH with Y32Q
VL: B1 VL with D56N

What follows are binders tested against T1, human TREM2 (human) (assay: 2nd screen, 100 nM Ab).

Binding Signal (fold over 6E7 parental antibody) [fold] | Binder
1.02 | B1
0.66 | B2
0.48 | B3
1.11 | B4
0.43 | B5
0.74 | B6
0.68 | B7
0.29 | B8
0.53 | B9
0.59 | B10
0.84 | B11
0.33 | B12
0.96 | B13
0.41 | B14
0.29 | B15
0.23 | B16
0.4 | B17
0.6 | B18
0.85 | B19
0.84 | B20
0.79 | B21
0.47 | B22
0.52 | B23
0.5 | B24
0.52 | B25
0.54 | B26

Each binder was assayed against T1, human TREM2 (human) (assay: 1st screen, 110 nM Ab).

Binding Signal (fold over 6E7 parental antibody) [fold] | Binder
0.34 | B1
0.24 | B2
0.37 | B3
0.86 | B4
0.44 | B5
0.25 | B6
0.28 | B7
0.21 | B8
0.43 | B9
0.23 | B10
0.8 | B11
0.2 | B12
0.83 | B13
0.45 | B14
0.2 | B15
0.17 | B16
0.41 | B17
0.19 | B18
0.84 | B19
0.79 | B20
0.3 | B21
0.42 | B22
0.7 | B23
0.59 | B24
0.65 | B25
0.55 | B26

From patent US20260250381A1
